# Measured values from PMC6814797, “C-terminal–modified LY2510924: a versatile scaffold for targeting C-X-C chemokine receptor type 4” (Scientific Reports, 2019).
# Where a SMILES comes first, the peptide text is derived from it. Bridges are numbered along the chain shown (N, C = ends). [ ]: non-standard residue; d: D form. 2Nal = N[C@@H](Cc1ccc2ccccc2c1)C(=O)O; Lys(iPr) = CC(C)NCCCC[C@H](N)C(=O)O
# Assays:
# CXCR4 = biological target: T1, CXCR4 (Homo sapiens, UniProt P61073); assay: Competitive binding assay: displacement of 125I-SDF-1α from CXCR4-expressing CCRF-CEM cells; settings: CCRF-CEM 0.5 × 10^6 cells, 125I-SDF-1α 1 kBq, 0.25 nM SDF-1α, one hour, room temperature per method (b54 says 37 °C); mean ± SD, n = 3
# T1 construct: were determined with CCRF-CEM cells expressing endogenous CXCR4; endogenous in cells; host or cells: CCRF-CEM (human acute lymphoblastic leukemia) whole cells
# T1 sequence (P61073 whole entry): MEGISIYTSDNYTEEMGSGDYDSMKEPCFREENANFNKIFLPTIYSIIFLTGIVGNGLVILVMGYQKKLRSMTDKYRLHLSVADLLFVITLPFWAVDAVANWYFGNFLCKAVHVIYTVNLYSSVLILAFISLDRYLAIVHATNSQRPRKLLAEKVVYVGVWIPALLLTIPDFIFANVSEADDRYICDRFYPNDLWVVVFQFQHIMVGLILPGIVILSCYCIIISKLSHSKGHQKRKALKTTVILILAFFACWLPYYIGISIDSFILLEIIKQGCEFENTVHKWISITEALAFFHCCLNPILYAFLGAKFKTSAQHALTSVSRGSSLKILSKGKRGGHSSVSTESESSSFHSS
# Experimental: CCRF-CEM cells and ^125I-SDF-1α were used for the competitive binding assay. The competitive binding assay was performed in a 96-well MultiScreen HTS FB plate (Merck) treated with 0.1% polyethyleneimine. RPMI-1640 containing 1% bovine serum albumin (BSA) and 0.05% Tween20 was used for the assay buffer. Briefly, 200-μL reaction mixtures containing CCRF-CEM (0.5 × 10^6 cells), ^125I-SDF-1α (1 kBq), SDF-1α (0.05 pmol; R&D Systems, Minneapolis, MN), and varying concentrations of CXCR4 antagonists were incubated at room temperature for one hour. After the incubation, the cells were washed three times with the assay buffer, and radioactivity counts of cells were determined with a gamma counter. The IC50 values were calculated by using GraphPad Prism version 5.04 (GraphPad Software, San Diego, CA).
# Since the purpose of this study was to assess in vivo accumulation to CXCR4-expressing cells, the apparent binding affinities were determined at 37 °C. […] The half-maximal inhibitory concentration (IC50) values of FRM001, its Ga-, Lu-, and Y-complexes, and other CXCR4 antagonists were determined with CCRF-CEM cells expressing endogenous CXCR4[34]. The displacement of ^125I-SDF-1α bound to the CXCR4 with the compounds was also evaluated in the presence of 0.25 nM of SDF-1α.
# physchem = format: physicochemical; settings: pH 7.4
# Experimental: A solution of ^67Ga-FRM001 (168 kBq, 56.8 pmol of FRM001) in 0.5 mL of 1-octanol was added to a 0.5 mL solution of phosphate-buffered saline (PBS) (pH 7.4). The mixture was vortexed and rotated at room temperature for 5 min. After centrifugation at 13,000 × g for 5 min, the radioactivity concentrations in samples of both the aqueous and organic phases were determined by using a gamma counter, and the logPow values were calculated.
# in vivo = settings: female, SCID (C.B-17/Icr-scid/scid), mouse, iv, total radioactivity; for tissue uptake at 4 h: biodistribution
# Experimental: All animal experiments were conducted in accordance with the Guidelines for Proper Conduct of Animal Experiments issued by the Science Council of Japan (June 1, 2006), and all experimental protocols were approved by the Institutional Animal Care and Use Committee of FUJIFILM RI Pharma Co., Ltd. (Permit No. Rin-170802 and Rin-180101). The acute lymphoblastic leukemia CCRF-CEM model was prepared using a published procedure. Briefly, 5 × 10^6 cells mixed with Matrigel (1:1; Corning, Corning, NY) were implanted subcutaneously into the rear flank of female 10-week-old SCID mice (C.B-17/Icr-scid/scid; CLEA Japan, Tokyo). After an average of three weeks, the animals were used in biodistribution and PET imaging studies. Tumor volumes ranged from 709–2,257 mm^3, while the tumor mass-to-body weight ratio was 3.1–9.4%.
# Mice were sacrificed at four hours after the injection. Organs of interest were removed, weighed, and the radioactivity counts were determined using a gamma counter. The biodistribution of each sample was expressed as a percentage of the injected dose per gram of wet tissue weight (%ID/g).
smiles,measurement,setting,value
"c1ccc(CNCc2ccc(CN3CCCNCCNCCCNCC3)cc2)nc1 [AMD3465, reference compound]",IC50,CXCR4,12.8 ± 1.52 nM
"CC(C)NCCCC[C@@H]1NC(=O)[C@H](Cc2ccc(O)cc2)NC(=O)[C@H](Cc2ccccc2)NC(=O)CC[C@H](C(=O)N[C@@H](CCCCNC(C)C)C(=O)N[C@@H](CSC2CC(=O)N(CCNC(=O)CN3CCN(CC(=O)O)CCN(CC(=O)O)CCN(CC(=O)O)CC3)C2=O)C(N)=O)NC(=O)CNC(=O)[C@H](Cc2ccc3ccccc3c2)NC(=O)[C@@H](CCCNC(=N)N)NC1=O (stereo partly drawn) [FRM001, cyclo[Phe-Tyr-Lys(iPr)-D-Arg-2-Nal-Gly-D-Glu]-Lys(iPr)-Cys(maleimido-mono-amide-DOTA)-NH2]",IC50,CXCR4,1.78 ± 0.15 nM
CC(C)NCCCC[C@@H]1NC(=O)[C@H](Cc2ccc(O)cc2)NC(=O)[C@H](Cc2ccccc2)NC(=O)CC[C@H](C(=O)N[C@@H](CCCCNC(C)C)C(=O)N[C@@H](CSC2CC(=O)N(CCNC(=O)CN3CCN(CC(=O)O)CCN(CC(=O)O)CCN(CC(=O)O)CC3)C2=O)C(N)=O)NC(=O)CNC(=O)[C@H](Cc2ccc3ccccc3c2)NC(=O)[C@@H](CCCNC(=N)N)NC1=O (stereo partly shown) [Ga-FRM001],IC50,CXCR4,2.26 ± 0.51 nM
"CC(C)NCCCC[C@H](NC(=O)[C@H]1CCC(=O)N[C@@H](Cc2ccccc2)C(=O)N[C@@H](Cc2ccc(O)cc2)C(=O)N[C@@H](CCCCNC(C)C)C(=O)N[C@H](CCCNC(=N)N)C(=O)N[C@@H](Cc2ccc3ccccc3c2)C(=O)NCC(=O)N1)C(N)=O [LY2510924, cyclo[Phe-Tyr-Lys(iPr)-D-Arg-2-Nal-Gly-D-Glu]-Lys(iPr)-NH2] (FY[Lys(iPr)][dR][2Nal]G[dE][Lys(iPr)]-NH2; lactam N-7)",IC50,CXCR4,1.37 ± 0.1 nM
CC(C)NCCCC[C@@H]1NC(=O)[C@H](Cc2ccc(O)cc2)NC(=O)[C@H](Cc2ccccc2)NC(=O)CC[C@H](C(=O)N[C@@H](CCCCNC(C)C)C(=O)N[C@@H](CSC2CC(=O)N(CCNC(=O)CN3CCN(CC(=O)O)CCN(CC(=O)O)CCN(CC(=O)O)CC3)C2=O)C(N)=O)NC(=O)CNC(=O)[C@H](Cc2ccc3ccccc3c2)NC(=O)[C@@H](CCCNC(=N)N)NC1=O (stereo partly shown) [Lu-FRM001],IC50,CXCR4,2.15 ± 0.14 nM
CC(C)NCCCC[C@@H]1NC(=O)[C@H](Cc2ccc(O)cc2)NC(=O)[C@H](Cc2ccccc2)NC(=O)CC[C@H](C(=O)N[C@@H](CCCCNC(C)C)C(=O)N[C@@H](CSC2CC(=O)N(CCNC(=O)CN3CCN(CC(=O)O)CCN(CC(=O)O)CCN(CC(=O)O)CC3)C2=O)C(N)=O)NC(=O)CNC(=O)[C@H](Cc2ccc3ccccc3c2)NC(=O)[C@@H](CCCNC(=N)N)NC1=O (stereo partly shown) [Y-FRM001],IC50,CXCR4,0.89 ± 0.04 nM
"CC(C)NCCCC[C@@H]1NC(=O)[C@H](Cc2ccc(O)cc2)NC(=O)[C@H](Cc2ccccc2)NC(=O)CC[C@H](C(=O)N[C@@H](CCCCNC(C)C)C(=O)N[C@@H](CSC2CC(=O)N(CCNC(=O)CN3CCN(CC(=O)O)CCN(CC(=O)O)CCN(CC(=O)O)CC3)C2=O)C(N)=O)NC(=O)CNC(=O)[C@H](Cc2ccc3ccccc3c2)NC(=O)[C@@H](CCCNC(=N)N)NC1=O (stereo partly shown) [^67Ga-FRM001, metal not drawn]",logD,physchem,-3.23 ± 0.05
same,tissue to tissue ratio at 4 h,in vivo; 0.2 nmol FRM001/mouse,59
same,tissue uptake at 4 h,"in vivo; 0.2 nmol FRM001/mouse, adrenals",1.02 ± 0.192 %ID/g
same,tissue uptake at 4 h,"in vivo; 0.2 nmol FRM001/mouse, blood",0.205 ± 0.033 %ID/g
same,tissue uptake at 4 h,"in vivo; 0.2 nmol FRM001/mouse, bone",0.682 ± 0.099 %ID/g
same,tissue uptake at 4 h,"in vivo; 0.2 nmol FRM001/mouse, brain",0.015 ± 0.003 %ID/g
same,tissue uptake at 4 h,"in vivo; 0.2 nmol FRM001/mouse, fat",0.291 ± 0.137 %ID/g
same,tissue uptake at 4 h,"in vivo; 0.2 nmol FRM001/mouse, heart",0.385 ± 0.063 %ID/g
same,tissue uptake at 4 h,"in vivo; 0.2 nmol FRM001/mouse, kidneys",4.85 ± 0.501 %ID/g
same,tissue uptake at 4 h,"in vivo; 0.2 nmol FRM001/mouse, large intestine",0.852 ± 0.318 %ID/g
same,tissue uptake at 4 h,"in vivo; 0.2 nmol FRM001/mouse, liver",16.1 ± 2.66 %ID/g
same,tissue uptake at 4 h,"in vivo; 0.2 nmol FRM001/mouse, lungs",2.01 ± 0.301 %ID/g
same,tissue uptake at 4 h,"in vivo; 0.2 nmol FRM001/mouse, muscle",0.107 ± 0.018 %ID/g
same,tissue uptake at 4 h,"in vivo; 0.2 nmol FRM001/mouse, ovary",0.808 ± 0.247 %ID/g
same,tissue uptake at 4 h,"in vivo; 0.2 nmol FRM001/mouse, skin",0.404 ± 0.076 %ID/g
same,tissue uptake at 4 h,"in vivo; 0.2 nmol FRM001/mouse, small intestine",0.355 ± 0.036 %ID/g
same,tissue uptake at 4 h,"in vivo; 0.2 nmol FRM001/mouse, stomach",0.381 ± 0.417 %ID/g
same,tissue uptake at 4 h,"in vivo; 0.2 nmol FRM001/mouse, thymus",1.57 ± 0.587 %ID/g
same,tissue uptake at 4 h,"in vivo; 0.2 nmol FRM001/mouse, tumor",12 ± 1.99 %ID/g
same,tissue uptake at 4 h,"in vivo; 0.2 nmol FRM001/mouse, uterus",0.944 ± 0.338 %ID/g
same,tissue uptake at 4 h,"in vivo; 0.2 nmol/mouse, pancreas",0.198 ± 0.016 %ID/g
same,tissue uptake at 4 h,"in vivo; 0.2 nmol/mouse, spleen",3.77 ± 0.195 %ID/g
